B1: GNB5 (parent)
chain: YYPSGDAFASGSDDATCRLYDLRA
B2: BRF1 (parent)
chain: CTACGSVLEDNIIVSEVQFVESSG

Variants of: B1
Test: protein stability index of a GFP-peptide fusion (GPS, HEK-293T) (PSI 1-6); higher = more stable
Settings: c terminus: a fixed tail appended
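Further: lentivirally expressed fusions sorted by FACS into six bins by GFP to DsRed ratio, PSI derived from sequencing read proportions per bin multiplied by bin number.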

Protein stability index of substitutions, site by site:
G11: S 2.08
P3: F 2.5
S10: A 2.25
D21: I 2.41
Y2: G 2.26
T16: M 2.31
R18: H 3.23

Variants of: B2
Test: as above
Settings: c terminus: a fixed tail appended

Protein stability index of substitutions, site by site:
E9: G 2.16 | D 3.55 | P 3.75 | M 2.57 | A 3.03 | H 2.32 | N 2.85 | L 2.24 | K 3.55 | I 2.08 | F 2.67 | Q 2.99 | C 2.31
C4: L 3.15 | V 3.83 | D 4.7 | M 3.88 | S 3.5 | F 2.78 | G 3.74 | K 4.04 | N 4.37 | Y 2.61 | P 2.68 | E 4.21 | R 3.57 | Q 4.18 | I 3.35 | T 3.21 | H 4.04 | A 3.49
V7: L 2.51 | D 3.44 | A 3.8 | E 4.17 | H 2.58 | F 2.33 | I 2.56 | Q 2.96 | R 3.22 | M 2.72 | S 2.85 | K 4.22 | C 2.64 | P 3.64 | G 2.8 | Y 2.37 | T 3.86 | N 2.94 | W 2.53
L8: H 3.32 | K 3.54 | Y 2.93 | G 3.39 | F 2.37 | Q 3.63 | E 3.68 | T 4.19 | M 3.79 | W 1.89 | P 3.9 | N 4.42 | C 3.29 | V 3.24 | D 3.65 | R 3.03 | I 3.44 | A 2.9 | S 3.06
T2: R 3.17 | P 2.72 | N 3.02 | L 2.75 | M 2.78 | A 3.64 | W 2.54 | H 3 | I 2.52 | F 2.12 | D 3.42 | E 3.25 | G 2.33 | Y 2.21 | Q 3.48 | V 1.86 | S 2.87 | K 3.48
A3: W 3.08 | N 4.03 | H 2.56 | F 2.4 | S 2.91 | I 2.06 | Y 2.5 | Q 3.88 | L 2.08 | P 3.47 | R 2.9 | G 2.37 | M 2.87 | E 3.6 | K 4.04 | D 2.28 | T 3.07 | V 3.22
S6: D 2.94 | T 3.38 | P 2.79 | G 3.35 | F 1.24 | C 2.38 | N 2.5 | Q 2.44 | V 2.22 | M 1.82 | K 3.06 | E 2.2 | A 2.73 | Y 1.59 | H 4.15 | I 1.27 | R 2.51 | L 1.39
G5: M 2.1 | L 1.75 | R 2.4 | S 3.17 | I 2.76 | T 2.91 | A 2.86 | P 3.67 | Y 1.76 | K 3.33 | H 1.76 | F 2.41 | D 3.62 | E 3.21 | Q 2.92 | C 1.78 | V 1.33 | W 2.27 | N 3.24
C1: T 4.16 | H 3.6 | M 3.6 | Q 4.3 | L 3.56 | I 1.46 | F 2.63 | A 3.88 | R 3.83 | N 3.65 | Y 3.18 | D 4.46 | S 4.13 | G 4.18 | E 4.86 | P 3.29 | W 2.51 | V 2.2
